Measurements: article doi:10.1101/2020.01.04.893909 (bioRxiv, 2020)

Biological target: the molecule itself
Test: SEC

B1: S. cerevisiae homologue of GAP (Rna1), recombinant (natural protein, UniProt P11745 1-407, looked up)
chain: MATLHFVPQHEEEQVYSISGKALKLTTSDDIKPYLEELAALKTCTKLDLSGNTIGTEASEALAKCIAENTQVRESLVEVNFADLYTSRLVDEVVDSLKFLLPVLLKCPHLEIVNLSDNAFGLRTIELLEDYIAHAVNIKHLILSNNGMGPFAGERIGKALFHLAQNKKAASKPFLETFICGRNRLENGSAVYLALGLKSHSEGLKVVKLYQNGIRPKGVATLIHYGLQYLKNLEILDLQDNTFTKHASLILAKALPTWKDSLFELNLNDCLLKTAGSDEVFKVFTEVKFPNLHVLKFEYNEMAQETIEVSFLPAMEKGNLPELEKLEINGNRLDEDSDALDLLQSKFDDLEVDDFEEVDSEDEEGEDEEDEDEDEKLEEIETERLEKELLEVQVDDLAERLAETEIK
B1: binds.
